In the experiment the target is LvPrx4 (endogenous, shrimp hemocytes) (Penaeus vannamei (endogenous in hemocytes)). As to the kind of experiment: Western blot after SDS-PAGE.

Stoichiometry N data for one substance are collected here from article PMC9813724.

For the substance “LvPrx4 (endogenous, shrimp hemocytes) (natural protein)”, the stoichiometry N came to 2.

A word on the stoichiometry N: it is the number of molecules, sites or subunits per partner or assembly.
